# T1: human EFNA4 expressed on cells (human, UniProt P52798 26-170)
# T1 sequence: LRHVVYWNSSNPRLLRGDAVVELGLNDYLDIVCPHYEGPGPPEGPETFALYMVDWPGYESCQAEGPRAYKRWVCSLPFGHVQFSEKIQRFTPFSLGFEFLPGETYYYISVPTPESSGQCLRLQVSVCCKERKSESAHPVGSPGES
# T2: recombinant human EFNA4 extracellular domain fused to a histidine tag (human, UniProt P52798 26-170)
# T2 construct: also called hEFNA4-ECD-His; not shown: histidine tag
# T2 sequence: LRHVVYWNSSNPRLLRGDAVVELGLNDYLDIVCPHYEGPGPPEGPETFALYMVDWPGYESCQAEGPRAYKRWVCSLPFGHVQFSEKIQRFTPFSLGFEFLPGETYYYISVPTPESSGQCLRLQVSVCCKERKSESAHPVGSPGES
# T3: recombinant cynomolgus monkey EFNA4 extracellular domain fused to a histidine tag (cynomolgus monkey, UniProt A0A2K5U3S7 84-228)
# T3 construct: extracellular domain; not shown: histidine tag
# T3 sequence: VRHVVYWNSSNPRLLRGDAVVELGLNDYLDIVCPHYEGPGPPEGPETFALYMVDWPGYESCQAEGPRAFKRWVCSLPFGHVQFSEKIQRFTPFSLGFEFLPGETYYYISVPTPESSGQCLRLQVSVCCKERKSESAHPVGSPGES
# T4: recombinant rat EFNA4 extracellular domain fused to a histidine tag (rat, UniProt D3ZEN1 26-173)
# T4 construct: extracellular domain; also called rat antigen; not shown: histidine tag
# T4 sequence: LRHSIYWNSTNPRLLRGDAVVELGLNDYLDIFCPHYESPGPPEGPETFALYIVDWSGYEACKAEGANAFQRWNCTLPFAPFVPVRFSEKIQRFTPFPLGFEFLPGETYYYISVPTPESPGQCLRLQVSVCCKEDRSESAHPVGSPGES
# T5: human EFNA4 antigen (ephrin-A4 ligand) (human, UniProt P52798 26-170)
# T5 construct: also called Hu Ag
# T5 sequence: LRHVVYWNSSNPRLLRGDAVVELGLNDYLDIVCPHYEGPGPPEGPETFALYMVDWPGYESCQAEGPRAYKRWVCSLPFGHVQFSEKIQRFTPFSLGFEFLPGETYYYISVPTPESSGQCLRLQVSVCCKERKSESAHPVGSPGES
# T6: Ephrin-A1-His (R&D) (UniProt P20827 19-182)
# T6 construct: also called Ephrin-A1 (EFNA1); EFNA1; not shown: His tag
# T6 sequence (looked up): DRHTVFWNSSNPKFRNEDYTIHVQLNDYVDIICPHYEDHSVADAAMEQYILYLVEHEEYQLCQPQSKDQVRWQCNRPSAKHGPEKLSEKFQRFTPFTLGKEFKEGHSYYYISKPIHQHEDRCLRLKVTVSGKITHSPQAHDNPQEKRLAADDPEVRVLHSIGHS
# T7: Ephrin-A3-huFc (R&D) (UniProt P52797 23-214, limits assumed)
# T7 construct: also called Ephrin-A3 (EFNA3); EFNA3; not shown: human Fc
# T7 sequence (looked up): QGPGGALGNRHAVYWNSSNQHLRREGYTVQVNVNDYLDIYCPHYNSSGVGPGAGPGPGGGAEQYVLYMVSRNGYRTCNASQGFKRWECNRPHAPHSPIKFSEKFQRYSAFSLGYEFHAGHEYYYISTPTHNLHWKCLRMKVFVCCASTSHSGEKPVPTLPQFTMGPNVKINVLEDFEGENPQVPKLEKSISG
# T8: Ephrin-A4-huFc (R&D) (human, UniProt P52798 26-170)
# T8 construct: bought reagent; also called Ephrin-A4 (EFNA4); EFNA4; not shown: human Fc
# T8 sequence: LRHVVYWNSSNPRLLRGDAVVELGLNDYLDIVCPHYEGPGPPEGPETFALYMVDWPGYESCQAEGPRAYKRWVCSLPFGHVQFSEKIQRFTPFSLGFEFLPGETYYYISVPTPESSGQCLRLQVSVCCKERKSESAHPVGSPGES
# T9: Ephrin-A5-huFc (R&D) (UniProt P52803 21-203)
# T9 construct: also called EFNA5; not shown: human Fc
# T9 sequence (looked up): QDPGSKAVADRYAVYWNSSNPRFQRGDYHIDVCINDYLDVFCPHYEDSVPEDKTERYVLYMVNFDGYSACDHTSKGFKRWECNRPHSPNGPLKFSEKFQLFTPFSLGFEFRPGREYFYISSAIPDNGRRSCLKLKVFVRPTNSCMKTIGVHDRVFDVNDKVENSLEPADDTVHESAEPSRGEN
# T10: monomeric human Ephrin-A4 (human), P52798
# T10 chain: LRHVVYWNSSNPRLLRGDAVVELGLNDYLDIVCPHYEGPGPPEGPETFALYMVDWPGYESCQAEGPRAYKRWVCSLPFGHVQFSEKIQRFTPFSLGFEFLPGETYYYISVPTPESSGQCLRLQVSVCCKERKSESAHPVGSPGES
# Tests used:
# [1] = target: T1, human EFNA4 expressed on cells; experiment: flow cytometry, MEC1 B-CLL cells (endogenous EFNA4), 10 µg/ml antibody
# [2] = target: T1, human EFNA4 expressed on cells; experiment: flow cytometry, MX-1 breast cells (endogenous EFNA4), 10 µg/ml antibody
# [3] = target: T1, human EFNA4 expressed on cells; experiment: flow cytometry, HCC202 breast cells (endogenous EFNA4), 10 µg/ml antibody
# [4] = target: T1, human EFNA4 expressed on cells; experiment: flow cytometry, Z138 mantle cell lymphoma cells (endogenous EFNA4), 10 µg/ml antibody
# [5] = target: T1, human EFNA4 expressed on cells; experiment: cell-based or functional assay
# [6] = target: T1, human EFNA4 expressed on cells; experiment: cell-based or functional assay; remark: listed apart in the source
# [7] = target: T2, recombinant human EFNA4 extracellular …; experiment: SPR (BIAcore 2000), recombinant EFNA4 ECD-His
# [8] = target: T3, recombinant cynomolgus monkey EFNA4 …; experiment: SPR (BIAcore 2000), recombinant EFNA4 ECD-His
# [9] = target: T4, recombinant rat EFNA4 extracellular …; experiment: SPR (BIAcore 2000), recombinant EFNA4 ECD-His
# [10] = target: T5, human EFNA4 antigen (ephrin-A4 ligand); experiment: Hu Ag Affinity (Humanized mAb); method not stated
# [11] = target: T6, Ephrin-A1-His (R&D); experiment: direct ELISA, Ephrin-A1-His coated on the plate, biotin-labeled huE22, streptavidin-HRP, OD450
# Experimental: (§1) Antibody binding was determined by direct ELISA with Ephrin-A1-His, Ephrin-A3-huFc, Ephrin-A4-huFc and Ephrin-A5-huFc (all from R&D) coated on BioOne Microlon (Greiner) plates in PBS overnight at 4° C.
# [12] = target: T7, Ephrin-A3-huFc (R&D); experiment: direct ELISA, Ephrin-A3-huFc coated on the plate, biotin-labeled huE22, streptavidin-HRP, OD450
# [13] = target: T8, Ephrin-A4-huFc (R&D); experiment: direct ELISA, Ephrin-A4-huFc coated on the plate, biotin-labeled huE22, streptavidin-HRP, OD450
# [14] = target: T9, Ephrin-A5-huFc (R&D); experiment: direct ELISA, Ephrin-A5-huFc coated on the plate, biotin-labeled huE22, streptavidin-HRP, OD450
# [15] = target: T1, human EFNA4 expressed on cells; experiment: cell-based or functional assay; remark: listed apart in the source
# [16] = target: T10, monomeric human Ephrin-A4 (human), …; experiment: SPR (BIAcore 2000), Eph receptor captured via anti-human antibody capture kit, monomeric human Ephrin-A4 12-400 nM as analyte, steady state affinity fit; conditions: remark: other sources report otherwise
# [17] = target: T6, Ephrin-A1-His (R&D); experiment: direct ELISA, Ephrin-A1-His coated on the plate, biotin-labeled huE47, streptavidin-HRP, OD450
# Experimental: as §1
# [18] = target: T7, Ephrin-A3-huFc (R&D); experiment: direct ELISA, Ephrin-A3-huFc coated on the plate, biotin-labeled huE47, streptavidin-HRP, OD450
# Experimental: as §1
molecule,measurement,setting,value
Non-binding control IgG (antibody),Mean Channel Fluorescent (MCF),[1],7.2
same,Mean Channel Fluorescent (MCF),[2],3.6
same,Mean Channel Fluorescent (MCF),[3],15.6
same,Mean Channel Fluorescent (MCF),[4],7.4
"humanized anti-EFNA4 antibody huE22 (antibody, human IgG1, kappa, V domains shown, human IgG1 / kappa; also called huE22 mAb; unconjugated huE22) VH: QVQLVQSGAEVKKPGASVKVSCKASGYTFTGYYIHWVRQAPGQGLEWMGWIYPGNFNTKYNERFKGRVTMTTDTSTSTAYMELRSLRSDDTAVYYCAREDGSPYYAMDYWGQGTSVTVSS VL: DIVMTQTPLSLSVTPGQPASISCRSSQSLVHSNGNTFLYWYLQKPGQSPQLLIYRVSNRFSGVPDRFSGSGSGTDFTLKISRVEAEDVGVYYCFQATHVPWTFGGGTKVEIKR","specificity of saporin-mediated cytotoxicity, HEK293T-EFNA4 over HEK293T parental cells",[5],~60 fold
same,"Saporin-mediated cytotoxicity IC50 (MTS viability), HEK293T parent cells, huE22 plus saporin-conjugated anti-human Fab",[6],174 ng/mL
same,"Saporin-mediated cytotoxicity IC50 (MTS viability), HEK293T-EFNA4 cells, huE22 plus saporin-conjugated anti-human Fab",[6],3 ng/mL
same,Kd,[7],1.7 nM
same,koff,[7],0.0033 s⁻¹
same,kon,[7],1.9e+06 M⁻¹ s⁻¹
same,Kd,[8],2.1 nM
same,koff,[8],0.0078 s⁻¹
same,kon,[8],3.8e+06 M⁻¹ s⁻¹
same,binding result,[9],no binding (tested: 400 nM antigen)
same,Kd,[10],3.8 nM
same,binding result,[11],no binding (tested: 1000 ng/ml)
same,binding result,[12],no binding (tested: 1000 ng/ml)
same,EC50 (read off the curve),[13],~4 ng/mL
same,binding result,[14],no binding (tested: 1000 ng/ml)
"huE22-AcBut-CM antibody-drug conjugate (antibody, V domains shown, AcBut-N-acetyl-gamma-calicheamicin dimethyl hydrazide (AcBut-CM) conjugated via lysine residues (sites not given); average DAR about 3 to 5, also called huE22-AcBut-CM ADC; huE22-ActBut-CM) VH: QVQLVQSGAEVKKPGASVKVSCKASGYTFTGYYIHWVRQAPGQGLEWMGWIYPGNFNTKYNERFKGRVTMTTDTSTSTAYMELRSLRSDDTAVYYCAREDGSPYYAMDYWGQGTSVTVSS VL: DIVMTQTPLSLSVTPGQPASISCRSSQSLVHSNGNTFLYWYLQKPGQSPQLLIYRVSNRFSGVPDRFSGSGSGTDFTLKISRVEAEDVGVYYCFQATHVPWTFGGGTKVEIKR","Anti-EFNA4-AcBut-CM cytotoxicity IC50 (MTS viability, 96 h), HEK293T-EFNA4 cells",[15],1 ng/mL
same,Kd,[7],2.3 nM
same,koff,[7],0.0061 s⁻¹
same,kon,[7],2.6e+06 M⁻¹ s⁻¹
same,Kd,[8],2.7 nM
same,koff,[8],0.011 s⁻¹
same,kon,[8],4.2e+06 M⁻¹ s⁻¹
same,binding result,[9],no binding (tested: 400 nM antigen)
"recombinant EphA1 receptor (commercially available), P21709 26-547 (receptor, UniProt P21709 26-547, looked up) KEVTLMDTSKAQGELGWLLDPPKDGWSEQQQILNGTPLYMYQDCPMQGRRDTDHWLRSNWIYRGEEASRVHVELQFTVRDCKSFPGGAGPLGCKETFNLLYMESDQDVGIQLRRPLFQKVTTVAADQSFTIRDLVSGSVKLNVERCSLGRLTRRGLYLAFHNPGACVALVSVRVFYQRCPETLNGLAQFPDTLPGPAGLVEVAGTCLPHARASPRPSGAPRMHCSPDGEWLVPVGRCHCEPGYEEGGSGEACVACPSGSYRMDMDTPHCLTCPQQSTAESEGATICTCESGHYRAPGEGPQVACTGPPSAPRNLSFSASGTQLSLRWEPPADTGGRQDVRYSVRCSQCQGTAQDGGPCQPCGVGVHFSPGARGLTTPAVHVNGLEPYANYTFNVEAQNGVSGLGSSGHASTSVSISMGHAESLSGLSLRLVKKEPRQLELTWAGSRPRSPGANLTYELHVLNQDEERYQMVLEPRVLLTELQPDTTYIVRVRMLTPLGPGPFSPDHEFRTSPPVSRGLTGGE",Kd,[16],414 nM
"recombinant EphB3 receptor (commercially available), P54753 34-559 (receptor, UniProt P54753 34-559, looked up) GCRALEETLMDTKWVTSELAWTSHPESGWEEVSGYDEAMNPIRTYQVCNVRESSQNNWLRTGFIWRRDVQRVYVELKFTVRDCNSIPNIPGSCKETFNLFYYEADSDVASASSPFWMENPYVKVDTIAPDESFSRLDAGRVNTKVRSFGPLSKAGFYLAFQDQGACMSLISVRAFYKKCASTTAGFALFPETLTGAEPTSLVIAPGTCIPNAVEVSVPLKLYCNGDGEWMVPVGACTCATGHEPAAKESQCRPCPPGSYKAKQGEGPCLPCPPNSRTTSPAASICTCHNNFYRADSDSADSACTTVPSPPRGVISNVNETSLILEWSEPRDLGGRDDLLYNVICKKCHGAGGASACSRCDDNVEFVPRQLGLTERRVHISHLLAHTRYTFEVQAVNGVSGKSPLPPRYAAVNITTNQAAPSEVPTLRLHSSSGSSLTLSWAPPERPNGVILDYEMKYFEKSEGIASTVTSQMNSVQLDGLRPDARYVVQVRARTVAGYGQYSRPAEFETTSERGSGAQQLQEQLPL",Kd,[16],108 nM
"humanized anti-EFNA4 antibody huE15 (antibody, human IgG1, V domains shown) VH: EVQLVESGGGLVKPGGSLRLSCAASGFTFSTYGMSWVRQAPGKGLEWVATISSGGTYTYYPDSVKGRFKISRDNAKNSLYLQMNSLRAEDTAVYYCTRHDPNDGYYFLFAYWGQGTLVTVSS VL: EIVLTQSPGTLSLSPGERATLSCKASQSVGNNVAWYQQKPGQAPRLLIYYASNRYTGIPDRFSGSGSGTDFTLTISRLEPEDFAVYYCQQHYSSPLTFGAGTKLEIK",Kd,[10],4.8 nM
"humanized anti-EFNA4 antibody huE47 (antibody, human IgG1, kappa, V domains shown, human IgG1 / kappa) VH: QVQLVQSGAEVKKPGASVKVSCKASGYTFTYFYMNWVRQAPGQGLEWVGQINPNNGGTAYAQKFQGRVTMTRDTSTSTVYMELSSLRSEDTAVYYCARWVGTHYFDYWGQGTTLTVSS VL: EIVLTQSPATLSLSPGERATLSCRASQSVSSSSYTYIHWYQQKPGQAPRLLINFASNLESGIPARFSGSGSGTDFTLTISSLEPEDFAVYYCQHSWEIPPTFGGGTKLEIKR",Kd,[10],< 0.1 nM
same,binding result,[17],no binding (tested: 1000 ng/ml)
same,binding result,[18],no binding (tested: 1000 ng/ml)

# From patent publication US20180296691A1 (Pfizer, published 2018)
